Laboratory results taken from patent US20250025505A1 (BIONTECH, published 2025).

Tests used:
Experiment in all cases: recognition by CLDN6 CAR-T cells, non-clinical study; assay not described
[1] = target: T1, CLDN4 (UniProt O14493 1-209, limits assumed)
T1 construct: also called claudin 4
T1 sequence (looked up): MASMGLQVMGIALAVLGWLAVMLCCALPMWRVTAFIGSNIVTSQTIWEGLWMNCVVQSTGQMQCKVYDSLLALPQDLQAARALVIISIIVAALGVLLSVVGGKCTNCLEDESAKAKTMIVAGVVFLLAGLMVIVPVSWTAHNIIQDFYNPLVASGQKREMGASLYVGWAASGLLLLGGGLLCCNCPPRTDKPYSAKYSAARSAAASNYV

[2] = target: T2, CLDN3 (UniProt O15551 1-220, limits assumed)
T2 construct: also called claudin 3
T2 sequence (looked up): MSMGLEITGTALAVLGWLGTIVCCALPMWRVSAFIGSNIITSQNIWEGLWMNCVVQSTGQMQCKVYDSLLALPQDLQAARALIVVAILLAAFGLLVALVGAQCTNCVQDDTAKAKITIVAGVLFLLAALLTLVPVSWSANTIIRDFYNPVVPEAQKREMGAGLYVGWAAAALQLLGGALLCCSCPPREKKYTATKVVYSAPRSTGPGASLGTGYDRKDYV

[3] = target: T3, CLDN9 (UniProt O95484 1-217, limits assumed)
T3 construct: also called claudin 9
T3 sequence (looked up): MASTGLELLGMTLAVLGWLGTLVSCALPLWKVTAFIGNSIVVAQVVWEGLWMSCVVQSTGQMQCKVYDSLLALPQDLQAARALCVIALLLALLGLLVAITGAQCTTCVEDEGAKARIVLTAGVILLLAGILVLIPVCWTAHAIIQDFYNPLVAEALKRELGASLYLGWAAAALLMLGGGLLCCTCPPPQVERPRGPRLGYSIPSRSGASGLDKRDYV

Measured: binding result

B1: CLDN6-CAR-CD8h-BBz (other)
chain: EVQLQQSGPELVKPGASMKISCKASGYSFTGYTMNWVKQSHGKNLEWIGLINPYNGGTIYNQKFKGKATLTVDKSSSTAYMELLSLTSEDSAVYYCARDYGFVLDYWGQGTTLTVSSGGGGSGGGGSGGGGSDIVLTQSPSIMSVSPGEKVTITCSASSSVSYMHWFQQKPGTSPKLSIYSTSNLASGVPARFSGRGSGTSYSLTISRVAAEDAATYYCQQRSNYPPWTFGGGTKLEIKRSDPATTTPAPRPPTPAPTIASQPLSLRPEACRPAAGGAVHTRGLDFACDIYIWAPLAGTCGVLLLSLVITLYCKRGRKKLLYIFKQPFMRPVQTTQEEDGCSCRFPEEEEGGCELRVKFSRSADAPAYKQGQNQLYNELNLGRREEYDVLDKRRGRDPEMGGKPRRKNPQEGLYNELQKDKMAEAYSEIGMKGERRRGKGHDGLYQGLSTATKDTYDALHMQALPPR
notes: Chimeric antigen receptor, tested on the surface of retrovirally transduced human (or murine) T cells; also called CLDN6-CAR-BBz
no binding: all assays above
